Experiments:
[1] = tested on: VM DA (TH+) neurons; experiment: Antigen processing and presentation, […]-MHC-I immunolabel; type: cell-based, mouse; conditions: OVA 7 days, then IFN-γ 72 h
Procedure: Following exposure of SN neuronal cultures to OVA or vehicle for 7 days, neurons were exposed to IFN-γ or saline for 72 h (note that these cultures were never exposed to […] (SEQ ID NO: 9)). The cultures were then double immunolabeled for TH and an antibody that recognizes only the MHC-I complex when is occupied by […] (SEQ ID NO: 9) ([…]-MHC-I). Occasional label of astrocytes, but not neurons, for […]-MHC-I was observed when the cultures were exposed to the vehicle, IFN-γ, or OVA alone (FIG. 5A). […] The results herein indicate that OVA had been processed to […] (SEQ ID NO: 9) within these mixed neuron/astrocyte cultures and loaded into the MHC-I groove within neuronal cytosol, and that the resulting complex was presented on the neuronal plasma membrane.
IFN-γ (R&D Systems) was used at a range of non-toxic concentrations for neurons or OT-1 cells (10 μg/ml-100 ng/ml, 72h). […]
(§1) Images were captured using a Leica SP5 microscope system. There was no fluorescence bleed-through of secondary antibodies under the conditions used. […]
(§2) In order to assess the proportion of TH^+ and MAP-2^+ neurons that expressed MHC-I^+, first TH^+ and MAP-2^+ neurons were counted in 24 fields surrounding the border of the well at 20× magnification. The number of TH^+ or MAP-2^+ neurons with intact soma and two or more neurites equal to or greater than the diameter of the cell soma was counted. […]

[2] = tested on: primary TH+ neurons (SN, VTA, LC); experiment: MHC-I induction in murine primary catecholamine neurons, immunofluorescence; type: cell-based, mouse
Text: To study the mechanisms underlying the preferential display of MHC-I by catecholamine neurons, primary neuronal cultures of >7 days in vitro prepared from 0-3 day old C57BL/6 mice were examined in the studies herein (Sulzer et al., 2008). DA neurons from VTA and SN and NE neurons of the LC were identified by immunolabel for TH. MHC-I staining was examined using an antibody raised against the H-2K^b and H-2D^b class I mouse alloantigens.
B6.129P2-B2m^tm1Unc/J mice were generated by a targeted disruption of the β2m gene, and have little or no MHC-I protein expression on the cell surface^68. […]
as §1, §2

[3] = tested on: hES derived DA neuronal cultures; experiment: MHC-I induction in hES-derived DA neurons, immunofluorescence; type: cell-based, human; conditions: 100 ng/ml, 72h
Procedure: (§3) hES derived DA neuronal cultures were obtained as described (Kriks et al., 2011). Briefly, H9 human ES cells were subjected to dual SMAD-inhibition followed by exposure to sonic hedgehog, purmorphamine, FGF8 and CHIR99021. Neurons were passaged on day 20, replated on glass-bottom dishes on day 30 at a density of 200.000 cells per 20 μl droplet, and then matured in Neurobasal media with the addition of B27 supplement, GDNF, BDNF, ascorbic acid, cAMP, TGFbeta and DAPT. hES derived spinal motor neuron (MN) cultures expressing EYFP under control of the human synapsin promoter were generated by exposure to dual SMAD-inhibition followed by caudalization with retinoid acid and ventralization through the hedgehog pathway. MN aggregates were replated on day 20 and matured in Neurobasal media with the addition of B27 supplement, GDNF, BDNF, ascorbic acid, cAMP and DAPT.
(§4) Cultures were treated with human IFN-γ (eBioscience) at a non-toxic concentration for hES (100 ng/ml, 72h). Cultures were then incubated with the MHC-I antibody prior to fixation in 4% paraformaldehyde and double immunofluorescence for TH and MHC-I as above. Micrographs were acquired using a Leica TCS SP5-II inverted confocal microscope.

[4] = tested on: hES derived spinal motor neuron (MN) cultures; experiment: MHC-I induction in hES-derived motor neurons, immunofluorescence; type: cell-based, human; conditions: 100 ng/ml, 72h
Procedure: as §3, §4

B1: OVA: chicken OVA, a 385 amino acid foreign protein (protein, UniProt P01012 2-386, looked up)
Ovalbumin: GSIGAASMEFCFDVFKELKVHHANENIFYCPIAIMSALAMVYLGAKDSTRTQINKVVRFDKLPGFGDSIEAQCGTSVNVHSSLRDILNQITKPNDVYSFSLASRLYAEERYPILPEYLQCVKELYRGGLEPINFQTAADQARELINSWVESQTNGIIRNVLQPSSVDSQTAMVLVNAIVFKGLWEKAFKDEDTQAMPFRVTEQESKPVQMMYQIGLFRVASMASEKMKILELPFASGTMSMLVLLPDEVSGLEQLESIINFEKLTEWTSSNVMEERKIKVYLPRMKMEEKYNLTSVLMAMGITDVFSSSANLSGISSAESLKISQAVHAAHAEINEAGREVVGSAEAGVDAASVSEEFRADHPFLFCIKHIATNAVLFFGRCVSP
- TH+ neurons immunolabeled for SIINFEKL-MHC-I [1]: ~10%

B2: IFN-γ: recombinant mouse IFN-γ (R&D Systems) (protein)
chain: HGTVIESLESLNNYFNSSGIDVEEKSLFLDIWRNWQKDGDMKILQSQIISFYLRLFEVLKDNQAISNNISVIESHLITTFFSNSKAKKDAFMSIAKFEVNNPQVQRQAFNELIRVVHQLLPESSLRKRKRSRC
- MHC-I (H-2Kb and H-2Db) immunolabel ([2]; neurons from β2m deficient (MHC-I null, KO) mice): did not induce MHC-I
- plasma membrane MHC-I expression on TH+ neurons ([2]; wild type C57BL/6 neurons): induced robust plasma membrane neuronal MHC-I expression

B3: human IFN-γ: human IFN-γ (eBioscience), proinflammatory cytokine (protein, UniProt P01579 24-161, looked up)
Interferon gamma: QDPYVKEAENLKKYFNAGHSDVADNGTLFLGILKNWKEESDRKIMQSQIVSFYFKLFKNFKDDQSIQKSVETIKEDMNVKFFNSNKKKRDDFEKLTNYSVTDLNVQRKAIHELIQVMAELSPAAKTGKRKRSQMLFRG
- plasma membrane expression of MHC-I by TH+ neurons [3]: virtually all TH+ neurons
- MHC-I expression in mature motor neurons [4]: no MHC-I expression was observed

From patent US20170184612A1, “USE OF LEUKOCYTES AND NOVEL BIOMARKERS IN THE DIAGNOSIS, CONFIRMATION, AND TREATMENT OF A NEUROLOGICAL DISORDER” (The Trustees of Columbia University in the City of New York, priority 2014, published 2017)
